± gives the uncertainty stated by the source.

The text below walks through data of the Human Domainome abundance scans (Beltran et al. 2025).

B1: GAS2-like protein 1, residues 209 to 276; numbered along this chain, Q99501 (parent)
chain: DELVREILGRCTCPDQFPMIKVSEGKYRVGDSSLLIFVRVLRSHVMVRVGGGWDTLEHYLDKHDPCRC

Variants of B1 are the subject of this data set. Put plainly: abundance fitness (aPCA) (normalised: wild type 0, dead -1); higher = more abundant; growth selection in yeast, the domain comes from the species named. The following applies: Homo sapiens.
As for DELVREILGRCTCPDQFPMIKVSEGKYRVGDSSLLIFVRVLRSHVMVDVGGGWDTLEHYLDKHDPCRC [R48D], the abundance fitness is -0.256 ± 0.055.
As for DELVREILGRCTCPDQFPMIKVSEGKYRVGDSSLLIFVRVLRSHVMVTVGGGWDTLEHYLDKHDPCRC [R48T], the abundance fitness is -0.628 ± 0.09.
As for DELVREILGRCTCPDQFPMIKVSEGKYRVGDSSLLIFVRVLRSHVMVQVGGGWDTLEHYLDKHDPCRC [R48Q], the abundance fitness is -0.133 ± 0.076.
Regarding DELVREILGRCTCPDQFPMIKVSEGKYRVGDSSLLIFVRVLRSHVMVWVGGGWDTLEHYLDKHDPCRC [R48W], the abundance fitness is -0.366 ± 0.084.
Turning to DELVREILGRCTCPDQFPMIKVSEGKYRVGDSSLLIFVRVLRSHVMVVVGGGWDTLEHYLDKHDPCRC [R48V], the abundance fitness is -0.784 ± 0.057.
Consider DELVREILGRCTCPDQFPMIKVSEGKYRVGDSSLLIFVRVLRSHVMVAVGGGWDTLEHYLDKHDPCRC [R48A], for which the abundance fitness was -0.446 ± 0.063.
Turning to DELVREILGRCTCPDQFPMIKVSEGKYRVGDSSLLIFVRVLRSHVMVEVGGGWDTLEHYLDKHDPCRC [R48E], the abundance fitness is -0.191 ± 0.12.
With DELVREILGRCTCPDQFPMIKVSEGKYRVGDSSLLIFVRVLRSHVMVSVGGGWDTLEHYLDKHDPCRC [R48S], the abundance fitness came out at 0.039 ± 0.037.
As for DELVREILGRCTCPDQFPMIKVSEGKYRVGDSSLLIFVRVLRSHVMVIVGGGWDTLEHYLDKHDPCRC [R48I], the abundance fitness is -0.542 ± 0.11.
In the case of DELVREILGRCTCPDQFPMIKVSEGKYRVGDSSLLIFVRVLRSHVMVMVGGGWDTLEHYLDKHDPCRC [R48M], the abundance fitness was -0.225 ± 0.07.
Take DELVREILGRCTCPDQFPMIKVSEGKYRVGDSSLLIFVRVLRSHVMVPVGGGWDTLEHYLDKHDPCRC [R48P]: the abundance fitness is -0.539 ± 0.076.
Take DELVREILGRCTCPDQFPMIKVSEGKYRVGDSSLLIFVRVLRSHVMVHVGGGWDTLEHYLDKHDPCRC [R48H]: the abundance fitness is -0.102 ± 0.17.
For DELVREILGRCTCPDQFPMIKVSEGKYRVGDSSLLIFVRVLRSHVMVYVGGGWDTLEHYLDKHDPCRC [R48Y], the abundance fitness is -0.166 ± 0.057.
In the case of DELVREILGRCTCPDQFPMIKVSEGKYRVGDSSLLIFVRVLRSHVMVNVGGGWDTLEHYLDKHDPCRC [R48N], the abundance fitness is 0.087 ± 0.061.
For the variant DELVREILGRCTCPDQFPMIKVSEGKYRVGDSSLLIFVRVLRSHVMVGVGGGWDTLEHYLDKHDPCRC [R48G], the abundance fitness is -0.236 ± 0.041.
Consider DELVREILGRCTCPDQFPMIKVSEGKYRVGDSSLLIFVRVLRSHVMVFVGGGWDTLEHYLDKHDPCRC [R48F], for which the abundance fitness is -0.404 ± 0.078.
For DELVREILGRCTCPDQFPMIKVSEGKYRVGDSSLLIFVRVLRSHVMVCVGGGWDTLEHYLDKHDPCRC [R48C], the abundance fitness is -0.224 ± 0.065.
In the case of DELVREILGRCTCPDQFPMIKVSEGKYRVGDSSLLIFVRVLRSHVMVKVGGGWDTLEHYLDKHDPCRC [R48K], the abundance fitness is 0.142 ± 0.063.
DELVREILGRCTCPDQFPMIKVSEGKYRVGDSSLLIFVRVLRSHVMVLVGGGWDTLEHYLDKHDPCRC [R48L]: the abundance fitness was -0.495 ± 0.048.
With DELVREILGRCTCPDQFPMIKVSEGKYRVGDSSLLIFVRVLRSHVMVRVGIGWDTLEHYLDKHDPCRC [G51I], the abundance fitness was -0.544 ± 0.12.
As for DELVREILGRCTCPDQFPMIKVSEGKYRVGDSSLLIFVRVLRSHVMVRVGDGWDTLEHYLDKHDPCRC [G51D], the abundance fitness was determined as 0.176 ± 0.057.
For DELVREILGRCTCPDQFPMIKVSEGKYRVGDSSLLIFVRVLRSHVMVRVGEGWDTLEHYLDKHDPCRC [G51E], the abundance fitness was found to be 0.229 ± 0.065.
Turning to DELVREILGRCTCPDQFPMIKVSEGKYRVGDSSLLIFVRVLRSHVMVRVGPGWDTLEHYLDKHDPCRC [G51P], the abundance fitness is -0.206 ± 0.072.
On to DELVREILGRCTCPDQFPMIKVSEGKYRVGDSSLLIFVRVLRSHVMVRVGMGWDTLEHYLDKHDPCRC [G51M], for which the abundance fitness was -0.15 ± 0.057.
In the case of DELVREILGRCTCPDQFPMIKVSEGKYRVGDSSLLIFVRVLRSHVMVRVGHGWDTLEHYLDKHDPCRC [G51H] it was 0.004 ± 0.17; in that of DELVREILGRCTCPDQFPMIKVSEGKYRVGDSSLLIFVRVLRSHVMVRVGAGWDTLEHYLDKHDPCRC [G51A], 0.024 ± 0.072; in that of DELVREILGRCTCPDQFPMIKVSEGKYRVGDSSLLIFVRVLRSHVMVRVGLGWDTLEHYLDKHDPCRC [G51L], -0.219 ± 0.043.
On to DELVREILGRCTCPDQFPMIKVSEGKYRVGDSSLLIFVRVLRSHVMVRVGKGWDTLEHYLDKHDPCRC [G51K], for which the abundance fitness came to 0.056 ± 0.065.
As for DELVREILGRCTCPDQFPMIKVSEGKYRVGDSSLLIFVRVLRSHVMVRVGCGWDTLEHYLDKHDPCRC [G51C], the abundance fitness was -0.157 ± 0.077.
For DELVREILGRCTCPDQFPMIKVSEGKYRVGDSSLLIFVRVLRSHVMVRVGQGWDTLEHYLDKHDPCRC [G51Q], the abundance fitness is -0.015 ± 0.067.
For DELVREILGRCTCPDQFPMIKVSEGKYRVGDSSLLIFVRVLRSHVMVRVEGGWDTLEHYLDKHDPCRC [G50E], the abundance fitness was determined as 0.011 ± 0.061.
DELVREILGRCTCPDQFPMIKVSEGKYRVGDSSLLIFVRVLRSHVMVRVSGGWDTLEHYLDKHDPCRC [G50S]: the abundance fitness was -0.143 ± 0.05.
As for DELVREILGRCTCPDQFPMIKVSEGKYRVGDSSLLIFVRVLRSHVMVRVCGGWDTLEHYLDKHDPCRC [G50C], the abundance fitness is -0.517 ± 0.078.
Then DELVREILGRCTCPDQFPMIKVSEGKYRVGDSSLLIFVRVLRSHVMVRVKGGWDTLEHYLDKHDPCRC [G50K], with -0.03 ± 0.05; and DELVREILGRCTCPDQFPMIKVSEGKYRVGDSSLLIFVRVLRSHVMVRVVGGWDTLEHYLDKHDPCRC [G50V], with -0.541 ± 0.12; and DELVREILGRCTCPDQFPMIKVSEGKYRVGDSSLLIFVRVLRSHVMVRVWGGWDTLEHYLDKHDPCRC [G50W], with -0.803 ± 0.13.
In the case of DELVREILGRCTCPDQFPMIKVSEGKYRVGDSSLLIFVRVLRSHVMVRVYGGWDTLEHYLDKHDPCRC [G50Y] it was -0.5 ± 0.12; in that of DELVREILGRCTCPDQFPMIKVSEGKYRVGDSSLLIFVRVLRSHVMVRVFGGWDTLEHYLDKHDPCRC [G50F], -0.896 ± 0.23; in that of DELVREILGRCTCPDQFPMIKVSEGKYRVGDSSLLIFVRVLRSHVMVRVMGGWDTLEHYLDKHDPCRC [G50M], -0.28 ± 0.085.
